Data as given in the supplement of paper PMC12764529.
± gives the half width of the 95% confidence interval.

Experiments:
[1] = folding stability dG unfold (combined trypsin and chymotrypsin); higher = more stable
Summary of the method: (§1)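 Only designs with AlphaFold2 dimer inter-PAE above 15 were retained; each was a mini-protein under 80 residues with no cysteine, in a PA-tagged cDNA display construct. After digestion with trypsin and chymotrypsin and sequencing, K50 was inferred by Bayesian fitting of counts, and unfolding free energy was derived per protease or combined against a sequence-predicted unfolded-state K50 and a shared folded-state K50.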

[2] = folding stability dG unfold from trypsin proteolysis; higher = more stable
Summary of the method: as §1

[3] = folding stability dG unfold from chymotrypsin proteolysis; higher = more stable
Summary of the method: as §1

SAGGSAGGSGMKRTATVVERDPATGRVLLEITDGSKTTTRVLEGPPSGRGAASSPEIDSLSLLSAGGSAGGS [r12_421_JUSTAS]
folding stability dG unfold [1]: -0.423 ± 0.098 kcal/mol
folding stability dG unfold [2]: -1.16 ± 0.29 kcal/mol
folding stability dG unfold [3]: -0.169 ± 0.12 kcal/mol

SAGVDGVKWNPESNEVSVEYEVNNQRVEQYIEPKPIPPVIVIPIDDIAERNPGLKDDLDENPGDWLVFPSAG [r5_958_TrROS]
folding stability dG unfold [1]: 0.415 ± 0.09 kcal/mol
folding stability dG unfold [2]: 0.79 ± 0.077 kcal/mol
folding stability dG unfold [3]: -0.332 ± 0.089 kcal/mol

SAGGMVIVVKTPGGATSITLGNLTITQDPSTGVAVAEATPEQVEALKKDPALKDIESIEILPEEELKSAGGS [r8_493_JUSTAS]
folding stability dG unfold [1]: 0.458 ± 0.14 kcal/mol
folding stability dG unfold [2]: 0.307 ± 0.024 kcal/mol
folding stability dG unfold [3]: 0.648 ± 0.056 kcal/mol

SAGGMPGVRPVVTVTVLVKFPGPDETKTVTITMRPEELAAGVTPEAAARRVAEALGHDIEILEIERKSAGGS [r16_554_JUSTAS]
folding stability dG unfold [1]: 1.61 ± 0.088 kcal/mol
folding stability dG unfold [2]: 1.4 ± 0.04 kcal/mol
folding stability dG unfold [3]: 1.86 ± 0.031 kcal/mol

SAGDAVRIPIRFPNGMQIYSIEINPDENTIKIKIYDPNGYRKFEWTFPVKDPNGDPKLVGKIKFYMRPPSAG [r5_434_TrROS]
folding stability dG unfold [1]: 2.31 ± 0.23 kcal/mol
folding stability dG unfold [2]: 2.01 ± 0.069 kcal/mol
folding stability dG unfold [3]: 2.61 ± 0.16 kcal/mol

SHWVRKELQEKGYPVKDIEMNPPQGYFYITIQRKRPRKGKPKKKEITIPMDPNMTPDNMLWMARNALDAYSA [r9_184_TrROS]
folding stability dG unfold [1]: 0.804 ± 0.1 kcal/mol
folding stability dG unfold [2]: 1.05 ± 0.14 kcal/mol
folding stability dG unfold [3]: 0.594 ± 0.14 kcal/mol

SAGGSAGGSAGGLKPGQKVAVFVKVKVKLYRDPATNELTEEVEIEDVFVVDAETKELLLSAGGSAGGSAGGS [r10_248_TrROS_Hall]
folding stability dG unfold [1]: 2.45 ± 0.12 kcal/mol
folding stability dG unfold [2]: 1.98 ± 0.13 kcal/mol
folding stability dG unfold [3]: 2.64 ± 0.071 kcal/mol

SVTVDEIAEWFANSFQQHGMKDVKVDVTVEPDPKNGRVRVDVQIRMTYPNPDGEKHRFEMTIPVEIPPNDSA [r9_440_TrROS]
folding stability dG unfold [1]: 1.99 ± 0.12 kcal/mol
folding stability dG unfold [2]: 1.93 ± 0.051 kcal/mol
folding stability dG unfold [3]: 1.93 ± 0.075 kcal/mol

SAGGSAGGSSSYSVPDSSSVTLETTVTITFPSSSVGGSPASSGPVAFTVPVKVTVSVTNPGVASAGGSAGGS [r12_668_JUSTAS]
folding stability dG unfold [1]: 1.02 ± 0.14 kcal/mol
folding stability dG unfold [2]: 1.18 ± 0.029 kcal/mol
folding stability dG unfold [3]: 0.532 ± 0.18 kcal/mol

SYKIHIMRPNGEMEEIPIKHPDGWKINIHRGPNKPFYIMVERYDPDGGPKPKPVIPIDSPEQALDKLKDASA [r9_942_TrROS]
folding stability dG unfold [1]: 0.0153 ± 0.2 kcal/mol
folding stability dG unfold [2]: -0.123 ± 0.18 kcal/mol
folding stability dG unfold [3]: -0.11 ± 0.3 kcal/mol

SAGGELVLLSESESVFTSPDGSRTVVRTLLTERPGDLLVEITTTTTIEPESGAVTTTTTTRVLPRRESAGGS [r8_264_JUSTAS]
folding stability dG unfold [1]: 2.8 ± 0.038 kcal/mol
folding stability dG unfold [2]: 2.33 ± 0.043 kcal/mol
folding stability dG unfold [3]: 3.021 ± 0.013 kcal/mol

SANMDMPPGFKPIARDDDITIWQNPNPVYIMIRGPDGKHKMLPFNPGDPEKIKDLIREFADDGITDIMISAG [r14_12_TrROS]
folding stability dG unfold [1]: 1.09 ± 0.15 kcal/mol
folding stability dG unfold [2]: 1.43 ± 0.016 kcal/mol
folding stability dG unfold [3]: 0.657 ± 0.12 kcal/mol

SAGGSAGGSETVVIKIEVSPEELEKLKEALEEAGYEVEIRVERDENGKLTVTVTIRLPPGVKPSAGGSAGGS [r12_653_TrROS_Hall]
folding stability dG unfold [1]: 2.86 ± 0.086 kcal/mol
folding stability dG unfold [2]: 3.18 ± 0.17 kcal/mol
folding stability dG unfold [3]: 2.57 ± 0.069 kcal/mol

SAGGSSITVPYPEGYEITVEVFPNYATITTKTPSSTLTKTVSFSTPVTVKTPSDKPVTINVPSPEVSAGGSA [r2_57_JUSTAS]
folding stability dG unfold [1]: 0.436 ± 0.18 kcal/mol
folding stability dG unfold [2]: 0.303 ± 0.034 kcal/mol
folding stability dG unfold [3]: 0.533 ± 0.12 kcal/mol

SAKKTITLTITNEDGSTFTITITDNKITITNKDNGLVAEAEILPDGTIKLKIYNKNGELIAEITLKIKDSAG [r14_213_TrROS_Hall]
folding stability dG unfold [1]: 4.09 ± 0.26 kcal/mol
folding stability dG unfold [2]: 3.18 ± 0.32 kcal/mol
folding stability dG unfold [3]: 4.32 ± 0.049 kcal/mol

SAGMVTLRVKLKDGRELEIQLASEEEIESLPPGAKVIPIPAESEEEALEAAARLLAEEEGLEIEEVEKVSAG [r5_119_TrROS_Hall]
folding stability dG unfold [1]: 0.638 ± 0.049 kcal/mol
folding stability dG unfold [2]: 0.671 ± 0.022 kcal/mol
folding stability dG unfold [3]: 0.564 ± 0.074 kcal/mol

SAGGSADYVFVRIEVRDPKNKQPMSIMIPVPPDMTPDEAIEEAEMIANTFKEKGLEITVEVEPMPPSAGGSA [r15_268_TrROS]
folding stability dG unfold [1]: 1.45 ± 0.22 kcal/mol
folding stability dG unfold [2]: 1.44 ± 0.24 kcal/mol
folding stability dG unfold [3]: 1.56 ± 0.13 kcal/mol
